For data set [1], the target named is cysteine-less TREK2 S105C (Gly67 to Glu340). Nature of the data set: SEC; Superdex-200 10/300, 20 mM Tris, 150 mM KCl, 2 mM DDM, pH 8, 4 °C; oligomer fractions of labelled TREK2 collected.
Data set [2] concerns the molecule itself. As to the kind of experiment: SEC; Superdex-200 10/300, 20 mM Hepes, 150 mM KCl, 5 mM DM, pH 7.5, 4 °C; tetrameric fractions pooled (again after fluorophore labelling).

Consider “cysteine-less TREK2 S105C (Gly67 to Glu340)”, for which, in data set [1], the stoichiometry N is 2.

B1: tandem dimeric NaK Δ19 T73C (other)
chain: KDKEFQVLFVLTILTLISGTIFYSTVEGLRPIDALYFSVVTLTTVGDGNFSPQCDFGKIFTILYIFIGIGLVFGFIHKLAVNVQLPSILSNRKKEGGGSGGGSKDKEFQVLFVLTILTLISGTIFYSTVEGLRPIDALYFSVVTLTTVGDGNFSPQTDFGKIFTILYIFIGIGLVFGFIHKLAVNVQLPSILSNRKKE
modifications: Alexa Fluor 555 or Alexa Fluor 647 c2 maleimide on T73C
notes: NaK (Na+- and K+-conducting) channel from Bacillus cereus, Δ19 construct, first subunit (S1) of the tandem, carries T73C; linker between the two copies; NaK channel from Bacillus cereus, Δ19 construct, second subunit of the tandem, without cysteine; pET28a; Two tandem dimers form the tetrameric channel; whether a His8 also follows the first copy inside the tandem is not clear; also called NaK …
As to B1, in data set [2], the binding result is “binds”.

B2: tandem dimeric NaK2K Δ19 T73C (other)
chain: KDKEFQVLFVLTILTLISGTIFYSTVEGLRPIDALYFSVVTLTTVGYGDFSPQCDFGKIFTILYIFIGIGLVFGFIHKLAVNVQLPSILSNRKKEGGGSGGGSKDKEFQVLFVLTILTLISGTIFYSTVEGLRPIDALYFSVVTLTTVGYGDFSPQTDFGKIFTILYIFIGIGLVFGFIHKLAVNVQLPSILSNRKKE
modifications: Alexa Fluor 555 or Alexa Fluor 647 c2 maleimide on T73C
notes: NaK channel from Bacillus cereus, Δ19 construct, NaK2K mutant (selectivity filter TVGDGN changed to TVGYGD), first subunit (S1) of the tandem, carries T73C; positions 63-68 are worked out from the printed Asn68; linker between the two copies; NaK channel from Bacillus cereus, Δ19 construct, NaK2K mutant (TVGDGN changed to TVGYGD), second subunit of the tandem, without cysteine; pET28a; Two tandem …
On to B2, for which the binding result in data set [2] is on record as “binds”.

B3: monomeric NaK Δ19 T73C (with F92A) (other)
chain: KDKEFQVLFVLTILTLISGTIFYSTVEGLRPIDALYFSVVTLTTVGDGNFSPQCDFGKIFTILYIFIGIGLVAGFIHKLAVNVQLPSILSNRKKE
notes: NaK channel from Bacillus cereus, Δ19 construct, monomeric; In the cross-linking experiment T73C was reacted with bis-maleimide PEG (Bis-Mal-dPEG3, 3 nm, or Bis-Mal-dPEG11, 6 nm); also called NaK T73C; not shown: His8, C-terminal, kept
In the case of B3, the “stoichiometry N” value in data set [2] stood at 4.

B4: monomeric NaK2K Δ19 T73C (with F92A) (other)
chain: KDKEFQVLFVLTILTLISGTIFYSTVEGLRPIDALYFSVVTLTTVGYGDFSPQCDFGKIFTILYIFIGIGLVAGFIHKLAVNVQLPSILSNRKKE
notes: NaK channel from Bacillus cereus, Δ19 construct, NaK2K mutant (TVGDGN changed to TVGYGD), monomeric; positions 63-68 are worked out from the printed Asn68; Channels 'formed as tetramers of monomeric, not tandem dimeric, constructs'; In the cross-linking experiment T73C was reacted with bis-maleimide PEG (3 nm or 6 nm); also called NaK2K T73C; not shown: His8, C-terminal, kept
Regarding B4, the “stoichiometry N” value in data set [2] was determined as 4.

What is called stoichiometry N is a count of units in the complex or per binding partner.

The values above are taken from paper PMC9822992, “Conformational plasticity of NaK2K and TREK2 potassium channel selectivity filters” (Nature Communications, 2023).
